From patent publication US20250289885A1 (TRUSTEES OF BOSTON UNIVERSITY, published 2025)

Target: T1, human Notch1-derived receptor overexpressed on CHO-K1 cells (human, UniProt P46531 19-1762, limits assumed)
T1 construct: Cells also express H2B-mTurq; also called Notch1 receptors
Test: fluorescence microscopy of JFX650-labelled probody on CHO-K1 cells overexpressing a human Notch1-derived receptor
Procedure: FIGS. 36A and 36B present data showing Cleavage-Dependent Binding of a Brontictuzumab-Based Probody to Notch1 Receptors. A probody containing a brontictuzumab-based scFv was fused to a TEV cleavable linker and a soluble form of the human Notch1 NRR. Probodies containing either (FIG. 36A) the V1667D NRR mutant NRR, or (FIG. 36B) wild-type NRR were tested. The probodies also contained a HaloTag for labeling with a JFX650 dye. Binding of the probody to Notch1 receptors was tested using uncleaved and TEV protease-cleaved probody. The evaluated cells were based on CHO-K1 celle overexpressing a human Notch1-derived receptor; cells also expressed H2B-mTurq as a fluorescent marker (inset). Brontictuzumab is an antibody that binds the NRR from Notch1 (NRR1). Brontictuzumab (aka OMP-52M51) is originally from Oncomed Pharmaceuticals. This antibody is distinct from the Genentech anti-NRR1 used in our receptor and other Notch1 probody designs.

T1 sequence (P46531 19-1762 limits assumed): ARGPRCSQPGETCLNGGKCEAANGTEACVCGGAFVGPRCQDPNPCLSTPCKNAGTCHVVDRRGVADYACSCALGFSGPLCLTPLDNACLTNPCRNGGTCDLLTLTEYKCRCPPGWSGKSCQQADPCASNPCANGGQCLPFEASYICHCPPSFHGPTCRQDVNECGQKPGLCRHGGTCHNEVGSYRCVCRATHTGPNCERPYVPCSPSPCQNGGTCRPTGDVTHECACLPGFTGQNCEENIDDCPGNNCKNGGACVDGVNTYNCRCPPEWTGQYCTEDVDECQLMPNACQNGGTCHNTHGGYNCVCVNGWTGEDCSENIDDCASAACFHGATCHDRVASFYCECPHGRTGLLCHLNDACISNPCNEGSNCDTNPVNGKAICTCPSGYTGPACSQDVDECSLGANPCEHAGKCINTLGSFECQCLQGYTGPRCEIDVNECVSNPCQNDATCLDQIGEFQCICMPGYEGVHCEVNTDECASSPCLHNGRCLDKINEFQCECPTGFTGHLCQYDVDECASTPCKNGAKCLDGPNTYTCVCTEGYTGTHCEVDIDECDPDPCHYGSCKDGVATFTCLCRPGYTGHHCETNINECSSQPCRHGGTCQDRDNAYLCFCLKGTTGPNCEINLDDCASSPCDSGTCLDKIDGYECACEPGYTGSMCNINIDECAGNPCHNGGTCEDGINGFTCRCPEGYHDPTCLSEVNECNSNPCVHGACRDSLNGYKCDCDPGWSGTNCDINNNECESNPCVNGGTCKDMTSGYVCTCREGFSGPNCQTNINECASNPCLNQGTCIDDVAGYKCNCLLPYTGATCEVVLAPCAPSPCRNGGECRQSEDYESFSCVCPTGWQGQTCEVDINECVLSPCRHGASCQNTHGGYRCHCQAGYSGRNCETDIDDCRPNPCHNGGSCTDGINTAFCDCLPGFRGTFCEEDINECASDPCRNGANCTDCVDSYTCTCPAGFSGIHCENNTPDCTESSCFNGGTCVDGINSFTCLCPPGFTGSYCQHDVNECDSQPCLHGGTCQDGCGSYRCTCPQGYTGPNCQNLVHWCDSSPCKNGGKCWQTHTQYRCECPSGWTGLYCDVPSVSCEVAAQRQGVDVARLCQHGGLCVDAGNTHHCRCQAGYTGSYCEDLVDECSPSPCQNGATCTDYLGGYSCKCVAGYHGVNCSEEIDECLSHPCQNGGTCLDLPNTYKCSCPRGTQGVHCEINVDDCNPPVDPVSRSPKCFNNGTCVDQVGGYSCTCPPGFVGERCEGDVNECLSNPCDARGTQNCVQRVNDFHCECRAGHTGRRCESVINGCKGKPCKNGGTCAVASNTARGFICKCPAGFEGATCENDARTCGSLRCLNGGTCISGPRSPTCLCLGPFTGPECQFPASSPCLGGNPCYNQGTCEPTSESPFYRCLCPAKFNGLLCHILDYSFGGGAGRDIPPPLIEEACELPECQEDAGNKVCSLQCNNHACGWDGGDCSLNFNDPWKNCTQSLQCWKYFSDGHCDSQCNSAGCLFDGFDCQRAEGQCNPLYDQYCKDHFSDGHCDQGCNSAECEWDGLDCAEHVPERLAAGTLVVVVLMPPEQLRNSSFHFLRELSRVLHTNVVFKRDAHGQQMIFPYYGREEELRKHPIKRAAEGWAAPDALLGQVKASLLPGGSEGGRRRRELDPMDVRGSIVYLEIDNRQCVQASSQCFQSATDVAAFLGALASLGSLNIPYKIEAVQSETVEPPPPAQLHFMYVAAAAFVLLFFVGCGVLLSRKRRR

- binding result: no binding
B1: TEV-cleavable Anti-Notch1 probody, with brontictuzumab scFv, Wild-type NRR (HaloTag-brontictuzumab-scFv-TEVcs-hNRR1^WT), intact (uncleaved) (other)
chain: YPYDVPDYATGMAEIGTGFPFDPHYVEVLGERMHYVDVGPRDGTPVLFLHGNPTSSYVWRNIIPHVAPTHRCIAPDLIGMGKSDKPDLGYFFDDHVRFMDAFIEALGLEEVVLVIHDWGSALGFHWAKRNPERVKGIAFMEFIRPIPTWDEWPEFARETFQAFRTTDVGRKLIIDQNVFIEGTLPMGVVRPLTEVEMDHYREPFLNPVDREPLWRFPNELPIAGEPANIVALVEEYMDWLHQSPVPKLLFWGTPGVLIPPAEAARLAKSLPNCKAVDIGPGLNLLQEDNPDLIGSEIARWLSTLEISGGGGGSTGDGGGGQVQLVQSGAEVKKPGASVKISCKVSGYTLRGYWIEWVRQAPGKGLEWIGQILPGTGRTNYNEKFKGRVTMTADTSTDTAYMELSSLRSEDTAVYYCARFDGNYGYYAMDYWGQGTTVTVSSGGSSRSSSSGGGGSGGGGQAVVTQEPSLTVSPGGTVTLTCRSSTGAVTTSNYANWFQQKPGQAPRTLIGGTNNRAPGVPARFSGSLLGGKAALTLSGAQPEDEAEYYCALWYSNHWVFGGGTKLTVLGSNSGGTLEGGGSGENLYFQGGGGGRTGGGSEQKLISEEDLGGGSILDYSFGGGAGRDIPPPLIEEACELPECQEDAGNKVCSLQCNNHACGWDGGDCSLNFNDPWKNCTQSLQCWKYFSDGHCDSQCNSAGCLFDGFDCQRAEGQCNPLYDQYCKDHFSDGHCDQGCNSAECEWDGLDCAEHVPERLAAGTLVVVVLMPPEQLRNSSFHFLRELSRVLHTNVVFKRDAHGQQMIFPYYGREEELRKHPIKRAAEGWAAPDALLGQVKASLLPGGSEGGRRRRELDPMDVRGSIVYLEIDNRQCVQASSQCFQSATDVAAFLGALASLGSLNIPYKIEAVQSETVEPGSLVPRGSSHHHHHHGPV
modifications: HaloTag labelled with JFX650 dye
notes: also called Brontictuzumab-based probody, wild-type NRR
